Literature values, collected in article PMC4699190.

Molecular target: Carbonic anhydrase II (Homo sapiens) (UniProt P00918)
Experiment: solid-phase binding assay
For NBCe1 C-terminus (from UniProt Q9Y6R1), the Kd is given as 322 nM. For NDCBE C-terminus (from UniProt Q2Y0W8), the Kd is listed as 330 nM. For AE1 C-terminus (from UniProt P02730), the Kd is listed as 597 nM.
